Source: PMC10849647

These substances were tested against pre-translocation ribosomal complex (without L27-tRNA labeling) (UniProt P0AG67) (assay: co-sedimentation).

Row | ratio of co-sedimented EF-G to ribosomal S1 protein [EF-G per S1] | Substance
1 | 0.15 | M5, the F410C-Y533C variant of a cysteineless E. coli EF-G (enzyme)
2 | 0.22 | T48E mutant of M5 EF-G (enzyme)
3 | 1 | T48V mutant of M5 EF-G (enzyme)
